The source of these data is the supplement of paper PMC9170038.

The data set relates to MS2 coat protein. Description: apparent KD of MS2 coat protein; designed switch direction (-1 OFF switch, 1 ON switch): -1; higher = weaker reporter binding. The method, boiled down:
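Designed RNA switches with common flanks were made on Illumina chips by stalled E. coli RNA polymerase. Titration with SNAP-549-labelled MS2 coat protein doubled from 0.7 or 1.5 nM up to 3 µM. Apparent KD is each design's median over clusters after curve-fitting normalised fluorescence.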

Setting [1] is: input ligand: microRNA oligo, concentration not stated.
The mark [2] stands for this setting: Eterna round: R95, input ligand: microRNA oligo, concentration not stated.
Setting [3] is: Eterna round: R95, input ligand: FMN 200 uM.
[4] abbreviates: Eterna round: R95, input ligand: none.

Regarding “GGAUCGAGUGUGAGGAUAUACCUAUGGAUACAUAGGUAGAAGGCACAUGAGGAUCACCCAUGUCCUAACGGUCC [Eli bmx4 4.15] (Eterna round: R97, puzzle: Brourd's mod of Exclusion 4)”, the “apparent KD of MS2 coat protein” value by setting is: (input ligand: FMN 200 uM) 933 nM; (input ligand: none) 308 nM.

Consider “AUUGACUGAGGAUAUUGUACUGCUGACAUGAGGAUCACCCAUGUAUGUUAACUCGGCCGUCGAGAAGGCAGAAAUG [BotMod 21 - Jieux - Exclusion 5] (Eterna round: R97, puzzle: Exclusion 5)”, for which the “apparent KD of MS2 coat protein” value runs as follows: (input ligand: FMN 200 uM) 18.4 nM; (input ligand: none) 34.8 nM.

With “GCGUAGUAUGUAGGAUAUCGGUCAGUUUCUGAUCGAGAAGGACAUGAGGAUCACCCAUGUAAAACGCCCGCUUUGUGGGUACGC [JL ENG1 3.59] (Eterna round: R96, puzzle: Exclusion NG 1)”, the “apparent KD of MS2 coat protein” value (input ligand: FMN 200 uM) came out at 55.4 nM, the “apparent KD of MS2 coat protein” value under setting [1] came out at 17.6 nM and the “apparent KD of MS2 coat protein” value (input ligand: none) was determined as 22.4 nM.

Consider “GUCAGCUCGUCAGGAUAUACAUGAGGAUCACCCAUGUGAUCAAUAGCAGCUUCGGCUGCAUACAUGUAGAAGGGACGAGCUGAU [ENG2/6-B2] (Eterna round: R96, puzzle: Exclusion NG 2)”, for which the “apparent KD of MS2 coat protein” value reads like this: (input ligand: FMN 200 uM) 195 nM; under setting [1], 15.3 nM; (input ligand: none) 160 nM.

Turning to “CUUUUGUGAGGAUAUCUGUAGUAAAAAAAUAAAAUUACUACUGAGAAGGCACAUGAGGAUCACCCAUGUUCCUC [salish99_ex4_r3_035] (puzzle: Exclusion 4)”, the “apparent KD of MS2 coat protein” value under setting [2] is 34 nM.

Take “AAAUAAUAGAUAAAAUAAAACAUGAGGAUCACCCAUGUAGGCUGAUGAGGGUGAAACAAGCUUUUUGCUCGUCUUAU (puzzle: Sensor v3, turn-off variant 1)”: the “apparent KD of MS2 coat protein” value runs as follows: under setting [3], 154 nM; under setting [2], 560 nM; under setting [4], 197 nM.

For the sequence “GCAUGGUGAGGAUAUGCAGAAGGGCAACGGUCAUCAUGACUACAUGAGGAUCACCCAUGUAGAAGGCACACAUG [Betearor] (puzzle: Exclusion 2)”, the “apparent KD of MS2 coat protein” value under setting [2] stood at 42.5 nM.

As to “ACCUCACAUGAGGAUCACCCAUGUCAGGAUAUCUUUUAAAACACCAAUCGUGUCGCUGAGAGAAGGGACAUUAA [EX1 #23] (Eterna round: R97, puzzle: Exclusion 1)”, the “apparent KD of MS2 coat protein” value amounted to 20.5 nM (input ligand: FMN 200 uM) and 16 nM (input ligand: none).

As to “UUUAUAAUUUCAAUCUUCGCCAACAAACUUACGCUGGCCACAUGAGGAUCACCCAUGUUUUUUGUUCGUUUUAUUCU [Veorenxere] (puzzle: Sensor v3, turn-off variant 2)”, the “apparent KD of MS2 coat protein” value is, setting by setting: under setting [3], 18.8 nM; under setting [2], 56.4 nM; under setting [4], 21.9 nM.

With “AACCGGCGGACCGAAGCUUUUUGCUUGUUUUAUACUACUACAUGAGGAUCACCCAUGUCGUGGUGGUCUGUUGUAGA [Bibe] (puzzle: Sensor v3, turn-off variant 2)”, the “apparent KD of MS2 coat protein” value is, setting by setting: under setting [3], 38.9 nM; under setting [2], 15.7 nM; under setting [4], 33.2 nM.

“UACAUGAGGAUCACCCAUGUUUUGUCGUGUAUGGUAUUUAUCUAGGAUAUCAAGUUAUUUAAUUAUGAGAAGGAGAAUAUUAAU [JMF's solution 34] (Eterna round: R96, puzzle: Exclusion NG 3)”: the “apparent KD of MS2 coat protein” value was found to be 32.8 nM (input ligand: FMN 200 uM), 26.6 nM under setting [1] and 34.5 nM (input ligand: none).

With “AGUGUGUGGCAGGAUAUUCUAAUCGUGAGUCGGGAAGAAGGGUCUACAUGAGGAUCACCCAUGUGAGCGGUUGA [Ex6 #45] (Eterna round: R97, puzzle: Exclusion 6)”, the “apparent KD of MS2 coat protein” value (input ligand: FMN 200 uM) was 219 nM and the “apparent KD of MS2 coat protein” value (input ligand: none) is 245 nM.

As for “CUGAACCCGGUAGGAUAUAUUGUGGGCAGGCGUGGAACGACAUGAGGAUCACCCAUGUAAUUUAGGUAGAAGGGCCGAGAGAUU [Excl-NG2-LRO13] (Eterna round: R96, puzzle: Exclusion NG 2)”, the “apparent KD of MS2 coat protein” value came to 22.9 nM (input ligand: FMN 200 uM), 21.7 nM under setting [1] and 37.3 nM (input ligand: none).

Consider “AGGUCACAUGAGGAUCACCCAUGUCAGGAUAUCGUCACUGGAGCUUCGGCUCCAGUGACGAGAAGGGACAAUUA [E1/6-A1] (Eterna round: R97, puzzle: Exclusion 1)”, for which the “apparent KD of MS2 coat protein” value was 499 nM (input ligand: FMN 200 uM) and 80.5 nM (input ligand: none).

Turning to “AAGAAACGGCAGGAUAUCCAGUCGAGAGAAAUAGGAGAAGGGCCAACAUGAGGAUCACCCAUGUCGGUGGCCUC [Rariinon] (Eterna round: R97, puzzle: Exclusion 6)”, the “apparent KD of MS2 coat protein” value reads like this: (input ligand: FMN 200 uM) 145 nM; (input ligand: none) 78.5 nM.

Take “UUAAUUAAUGUAGGAUAUGCAAGGCGAACCUAAGCAGAAGGACAUGUGGAUCACCCAUGUAAUGCGGUCUGCGUACAGAUCGCU [salish99_ex1_NG1_001] (Eterna round: R96, puzzle: Exclusion NG 1)”: the “apparent KD of MS2 coat protein” value (input ligand: FMN 200 uM) is 271 nM, the “apparent KD of MS2 coat protein” value under setting [1] came to 1170 nM and the “apparent KD of MS2 coat protein” value (input ligand: none) is 1270 nM.

For the sequence “UUUUUGUAUGAAGGAUAUACUUAACAUGAGGAUCACCCAUGUGGUGUUGUGAGUGAGUGAGUUUAGUAGAAGGUCAAUUCUUUU [JMF's solution 88] (Eterna round: R96, puzzle: Exclusion NG 2)”, the “apparent KD of MS2 coat protein” value came to 604 nM (input ligand: FMN 200 uM), 275 nM under setting [1] and 454 nM (input ligand: none).

Turning to “AAGAAACAUGAGGAUCACCCAUGUGAGGAUAUGAUGAAGAAAAGAAAAGAAAGAAGAUUCAGAAGGCACAAAGG [salish99-ex1_r3_055] (puzzle: Exclusion 1)”, the “apparent KD of MS2 coat protein” value by setting is: under setting [3], 113 nM; under setting [2], 48.9 nM; under setting [4], 80.5 nM.

For the sequence “UUUUAACAUGAGGAUCACCCAUGUGAGGAUAUCGAAAUUUAUAUUAAUAUUAAUAAUUCGAGAAGGCACAUUUU [JMF 21] (puzzle: Exclusion 1)”, under setting [2], the “apparent KD of MS2 coat protein” value is 117 nM.

“UUUGAAAAUGUAGGAUAUGGAAUAGGUAAGUAGCCAGAAGGACAUGAGGAUCACCCAUGUAAGAACAUAGGGAAAGAUAUGUUU [No clue what I'm doing] (Eterna round: R96, puzzle: Exclusion NG 1)”: the “apparent KD of MS2 coat protein” value turned out to be 90.8 nM (input ligand: FMN 200 uM), 32.9 nM under setting [1] and 44.7 nM (input ligand: none).

With “ACAAGCUUAAAAAUCCUAAACAUGAGGAUCACCCAUGUUCGUCUUAUAAAAAUAAAAAUAAAAAACAAAAAAUAAAA [Sensor V2: 71] (Eterna round: R96, puzzle: Sensor v2, turn-off variant)”, the “apparent KD of MS2 coat protein” value runs as follows: (input ligand: FMN 200 uM) 39 nM; under setting [1], 228 nM; (input ligand: none) 39.3 nM.

Consider “GCACGGUUGCUAGGAUAUCCUUGCGAUUAGCAAGGAGAAGGAGCACAUGAGGAUCACCCAUGUACCUCAAUAAUCCUUCCGUGC [Eli exng1 - 028] (Eterna round: R96, puzzle: Exclusion NG 1)”, for which the “apparent KD of MS2 coat protein” value is, setting by setting: (input ligand: FMN 200 uM) 12.9 nM; under setting [1], 13.2 nM; (input ligand: none) 15.6 nM.

As to “CGUGACUCAGGAUAUGUAUUAUAUCACAUGAGGAUCACCCAUGUCCAGCGAAAGCUGGAGGCAGAAGGGAGUCACG [Fiskers Ex 5 - 47] (puzzle: Exclusion 5)”, the “apparent KD of MS2 coat protein” value by setting is: under setting [3], 41.4 nM; under setting [2], 87.6 nM; under setting [4], 106 nM.

With “CACAACAGAGGAUAUACAUGAGGAUCACCCAUGUGUUCCAGCUAGGAGACUAGCAAGUGUAGAAGGCUGUUGUG [Mat - Exclusion 3 - JL Mod - D10] (Eterna round: R97, puzzle: Exclusion 3)”, the “apparent KD of MS2 coat protein” value (input ligand: FMN 200 uM) was 269 nM and the “apparent KD of MS2 coat protein” value (input ligand: none) was 501 nM.

On to “UUUUAACAUGAGGAUCACCCAUGUGAGGAUAUCGAAAUUUAUAUUAAUAUUAUUUUUUCGAGAAGGCACAUUUU [JMF 49] (puzzle: Exclusion 1)”, for which the “apparent KD of MS2 coat protein” value under setting [2] was 148 nM.

For the sequence “UCUCGUUGGCAAGGAUAUCCUACAUUGUUCUGGCCCGGGCAUGCUACAUGAGGAUCACCCAUGUGGGAGAAGGUGCGUCAUUGC [Design 23] (Eterna round: R96, puzzle: Exclusion NG 2)”, the “apparent KD of MS2 coat protein” value turned out to be 146 nM (input ligand: FMN 200 uM), 77.4 nM under setting [1] and 140 nM (input ligand: none).

With “CUUAGACAUGAGGAUCACCCAUGUGAGGAUAUGAUGAGGAUAAGGAAGGAAGAAGGAAUCAGAAGGCACAUAUG [Mat - Mod of Hyphema D27] (puzzle: Exclusion 1)”, the “apparent KD of MS2 coat protein” value under setting [3] is 102 nM, the “apparent KD of MS2 coat protein” value under setting [2] worked out at 69.4 nM and the “apparent KD of MS2 coat protein” value under setting [4] was determined as 74.2 nM.

Consider “AAGUAACAUGAGGAUCACCCAUGUUAGGAUAUCUCGGCCACAGGAACGCUGUAAAGCCAGAGAAGGAGCGGGUG [Mabi] (Eterna round: R97, puzzle: Exclusion 1)”, for which the “apparent KD of MS2 coat protein” value by setting is: (input ligand: FMN 200 uM) 156 nM; (input ligand: none) 127 nM.

Regarding “UUUAAUUUUUUUUUUUUACAAGCUUUUUGCUCGUCUUAUACAUGAGGAUCACCCAUGUGAGUGAGGGAUAAAUUAUC [JMF 41] (puzzle: Sensor v3, turn-off variant 2)”, the “apparent KD of MS2 coat protein” value worked out at 19.4 nM under setting [3], 23.9 nM under setting [2] and 16.7 nM under setting [4].

Consider “GAGCCAUCGUGAGAUGGCUAAAUUACAUGAGGAUCACCCAUGUAGGAUAUCGAUUGCUUUGCAGUCGAGAAGGACAUGUUUAAU [JL ENG3 3.99] (Eterna round: R96, puzzle: Exclusion NG 3)”, for which the “apparent KD of MS2 coat protein” value was determined as 67.5 nM (input ligand: FMN 200 uM), 27.8 nM under setting [1] and 32.9 nM (input ligand: none).
